Assay [1] addresses Halo-FtsZ (FtsZ fused with HaloTag) (Caulobacter crescentus). In words: single molecule tracking in live cells.
Assay [2] addresses Halo-FtsZ^D216A (Caulobacter crescentus). In words: single molecule tracking in live cells.

Substance “Halo-FtsZ (FtsZ fused with HaloTag) (natural protein)” returned a monomer lifetime in assay [1] of 12.2 s.

With Halo-FtsZ^D216A (natural protein), the monomer lifetime in assay [2] came out at 16.2 s.

For the origin of these results see paper doi:10.1101/2023.09.08.556907.
